Two substances from article PMC6367273 can be followed below.

In experiment [1] the target is LPHN1-S (FLAG-tagged splice variant of murine LPHN1 with a truncated intracellular tail) (mouse). Description: immunostaining of cells or tissue; HEK-LPHN1-S, HEK-WT and HEK-Puro cells incubated with FITC-K37-mTCAP-1 (1:400) in medium with HEPES pH 7.4 and 0.1% BSA for 12 h at 4°C, washed, fixed, stained with Cy3-tagged FLAG antibody; confocal microscopy; green pixels (intensity 20-255) per cell.

Experiment [2] shares this target.
Experiment [3] has the same target. The source holds these as a separate data set.

In the case of FITC-tagged K37-mTCAP-1 (peptide), the green pixels per cell in experiment [1] worked out at 49.5 pixels/cell.

In turn, “Mouse TCAP-1 (mTCAP-1), synthetic (peptide)” registered a f-actin (Phalloidin red pixels per cell) in HEK-LPHN1-S cells treated with 100 nM mTCAP-1 for 60 min against vehicle; no significant change in HEK-WT cells in experiment [2] of 343%. In addition, the cell height of HEK-LPHN1-S cells treated with 100 nM mTCAP-1 for 60 min against vehicle; no significant change in HEK-WT cells in experiment [3] was determined as 39%.
